The results in this text go back to the RNAGym collection of RNA variant scans (doi:10.1101/gr.219683.116).

B1: mRNA-splicing (parent)
chain: AGUUGCUGCUGGGAGCUCCAGCACAGUGAAAUGGACAGAAGGGCAGAGCAA

In the series the parent is B1. The series can be described thus: exon inclusion enrichment index; higher = more inclusion; WT1 exon 5 minigene, HEK293.
Regarding G5A C6U U7A G8U C9A C44A A45G, the “exon inclusion enrichment index” value is 0.0995.
For G5A C6U U7A G8U C9A C44A A45U the value was 0.189; for G5A C6U U7A G8U C9A C44A A45C, 0.248.
For G5A C6U U7A G8U C9A A40G G41C the value was 0.455.
Then G5A C6U U7A G8U C9A A40G G41U, with 0.0544; and G5A C6U U7A G8U C9A A40G G41A, with 0.0181; and G5A C6U U7A G8U C9A A31U U32A, with 0.0012.
G5A C6U U7A G8U C9A A31U U32G: the “exon inclusion enrichment index” value was 0.0286.
With G5A C6U U7A G8U C9A A31U U32C, the “exon inclusion enrichment index” value was found to be 0.168.
For G5A C6U U7A G8U C9A C16A U17G the value was 0.0322.
For G5A C6U U7A G8U C9A C16A U17A the value was 0.0573.
For G5A C6U U7A G8U C9A C16A U17C the value was 0.0702.
Consider G5A C6U U7A G8U C9A A20C G21A, for which the “exon inclusion enrichment index” value was 0.0479.
Then G5A C6U U7A G8U C9A A20C G21C, with 0.0139.
For G5A C6U U7A G8U C9A A20C G21U the value was 0.0238; for G5A C6U U7A G8U C9A G12C G13A, 0.0284.
For G5A C6U U7A G8U C9A G12C G13U the value was 0.000527.
G5A C6U U7A G8U C9A G12C G13C: the “exon inclusion enrichment index” value stood at 0.0141.
G5A C6U U7A G8U C9A A14U G15A: the “exon inclusion enrichment index” value was 0.0025.
For G5A C6U U7A G8U C9A A14U G15C the value was 0.00818; for G5A C6U U7A G8U C9A A14U G15U, 0.00593; for G5A C6U U7A G8U C9A G13U, 0.00122.
For G5A C6U U7A G8U C9A G13C the value was 0.0162; for G5A C6U U7A G8U C9A G13A, 0.144.
In the case of G5A C6U U7A G8U C9A C24U, the “exon inclusion enrichment index” value turned out to be 0.00831.
Then G5A C6U U7A G8U C9A C24A, with 0.0667; and G5A C6U U7A G8U C9A C24G, with 0.0851; and G5A C6U U7A G8U C9A G21C C22A, with 0.109.
Regarding G5A C6U U7A G8U C9A G21C C22G, the “exon inclusion enrichment index” value amounted to 0.197.
Consider G5A C6U U7A G8U C9A A31U, for which the “exon inclusion enrichment index” value turned out to be 0.0565.
For G5A C6U U7A G8U C9A A31C the value was 0.077.
For G5A C6U U7A G8U C9A A31G the value was 0.12; for G5A C6U U7A G8U C9A A47C G48U, 0.0767.
For G5A C6U U7A G8U C9A A47C G48A the value was 0.0387; for G5A C6U U7A G8U C9A A47C G48C, 0.0967; for G5A C6U U7A G8U C9A A23C C24G, 0.241.
For the variant G5A C6U U7A G8U C9A A23C C24U, the “exon inclusion enrichment index” value was found to be 0.00662.
For G5A C6U U7A G8U C9A A23C C24A the value was 0.0996.
For G5A C6G U7G G8A C9A the value was 0.00786; for G5A C6G U7G G8A C9G, 0.0105; for G5A C6G U7G G8A C9U, 0.0075.
For G5A C6U U7A G8U C9A A45C the value was 0.106; for G5A C6U U7A G8U C9A A45G, 0.212; for G5A C6U U7A G8U C9A A45U, 0.132.
With G5A C6U U7A G8U C9A A35G C36G, the “exon inclusion enrichment index” value came out at 0.00488.
For G5A C6U U7A G8U C9A A35G C36U the value was 0.00124.
Then G5A C6U U7A G8U C9A A35G C36A, with 0.0117; and G5A C6U U7A G8U C9A A45U G46C, with 0.0684.
For G5A C6U U7A G8U C9A A45U G46A the value was 0.0424; for G5A C6U U7A G8U C9A A45U G46U, 0.0214; for G5A C6U U7A G8U C9A A14G G15A, 0.0192.
For the variant G5A C6U U7A G8U C9A A14G G15C, the “exon inclusion enrichment index” value was 0.0123.
For G5A C6U U7A G8U C9A A14G G15U the value was 0.00355; for G5A C6U U7A G8U C9A A45C G46U, 0.0134; for G5A C6U U7A G8U C9A A45C G46C, 0.0306.
Then G5A C6U U7A G8U C9A A45C G46A, with 0.0341.
Then G5A C6U U7A G8U C9A C36U A37U, with 0.0384; and G5A C6U U7A G8U C9A C36U A37G, with 0.0518.
For G5A C6U U7A G8U C9A C36U A37C, the “exon inclusion enrichment index” value turned out to be 0.0296.
With G5A C6U U7A C9A U10A, the “exon inclusion enrichment index” value was 0.0444.
For G5A C6U U7A G8U C9A A30C A31G, the “exon inclusion enrichment index” value amounted to 0.168.
Regarding G5A C6U U7A G8U C9A A30C A31C, the “exon inclusion enrichment index” value stood at 0.126.
Then G5A C6U U7A G8U C9A A30C A31U, with 0.0899; and G5A C6U U7A G8U C9A G11A G12A, with 0.00659.
For G5A C6U U7A G8U C9A G11A G12C the value was 0.0285; for G5A C6U U7A G8U C9A G11A G12U, 0.01; for G5A C6U U7A G8U C9A C44G A45G, 0.0089.
Then G5A C6U U7A G8U C9A C44G A45C, with 0.138.
Consider G5A C6U U7A G8U C9A C44G A45U, for which the “exon inclusion enrichment index” value was found to be 0.0272.
Then G5A C6U U7A C9G, with 0.0115.
Consider G5A C6U U7A C9U, for which the “exon inclusion enrichment index” value is 0.0151.
G5A C6U U7A C9A: the “exon inclusion enrichment index” value was 0.0715.
Then G5A C6U U7A G8U C9A C44A, with 0.286; and G5A C6U U7A G8U C9A C44G, with 0.115; and G5A C6U U7A G8U C9A C44U, with 0.00684.
G5A C6U U7A G8U C9A A30U A31C: the “exon inclusion enrichment index” value came out at 0.064.
Regarding G5A C6U U7A G8U C9A A30U A31U, the “exon inclusion enrichment index” value was determined as 0.0488.
With G5A C6U U7A G8U C9A A30U A31G, the “exon inclusion enrichment index” value stood at 0.0609.
For G5A C6U C9A the value was 0.306.
Then G5A C6U U7A G8U C9A A35U C36U, with 0.000729; and G5A C6U U7A G8U C9A A35U C36A, with 0.000817; and G5A C6U U7A G8U C9A A35U C36G, with 0.00319.
Regarding G5A C6U U7A G8U C9A C36G A37C, the “exon inclusion enrichment index” value is 0.0098.
